In patent US20070020757A1 one finds percent of total bone marrow cells that bind and percent of total cells that bind data, which are given here for two substances.

For test [1], the target named is receptor for Angptl2 expressed on mouse bone marrow hematopoietic stem cells (unidentified) (mouse). In words: flow cytometry; fresh mouse bone marrow cells, ~1 ug/ml Angptl2-hFc at 4 C for 30 min, anti-human IgG1-PE. (In general: In flow cytometry, cells or beads pass a laser one at a time.)
The target is the same in test [2]. Put plainly: flow cytometry; 4 day cultured mouse bone marrow cells, ~1 ug/ml Flag-Angptl2 medium.

Regarding “Angptl2-hFc (human Angptl2 fused to Pro 100-Lys 330 of human IgG1 Fc) (from UniProt Q9UKU9 23-493) (Fc fusion)”, the percent of total bone marrow cells that bind in test [1] was 12.8%. Substance “FLAG-hAngptl2 (human Angptl2 with a FLAG tag fused at the C-terminus) (from UniProt Q9UKU9 23-493) (ligand)” gave a percent of total cells that bind in test [2] of 5.3%.
